According to the Immune Epitope Database (IEDB):

Key:
[1] = target: HLA-B*35:01; assay: IEDB peptide-MHC binding, purified MHC/direct/fluorescence; filed as Kd, often an IC50 or EC50 that approximates it; ≥ and ≤ were set here for values at or beyond the usual limits of such assays
[2] = target: HLA-A*26:01; assay: as above
[3] = target: HLA-B*07:02; assay: as above
[4] = target: HLA-A*24:03; assay: as above
[5] = target: HLA-A*02:01; assay: as above
[6] = target: HLA-B*44:02; assay: as above
[7] = target: HLA-A*69:01; assay: as above
[8] = target: HLA-A*01:01; assay: as above
[9] = target: HLA-B*40:01; assay: as above
[10] = target: HLA-B*27:05; assay: as above
[11] = target: HLA-B*15:01; assay: as above
[12] = target: HLA-B*08:01; assay: as above
[13] = target: HLA-A*31:01; assay: as above
[14] = target: HLA-A*11:01; assay: as above
[15] = target: HLA-A*03:01; assay: as above
[16] = target: HLA-B*58:01; assay: as above
[17] = target: HLA-B*27:03; assay: as above
[18] = target: HLA-A*02:19; assay: as above
[19] = target: HLA-B*57:01; assay: as above
[20] = target: HLA-A*02:16; assay: as above; details: source organism: Vibrio cholerae O139
[21] = target: HLA-B*15:17; assay: as above; details: source organism: Vibrio cholerae O139
[22] = target: HLA-B*46:01; assay: as above
[23] = target: HLA-B*51:01; assay: as above
[24] = target: HLA-A*02:12; assay: as above
[25] = target: HLA-A*68:02; assay: as above
[26] = target: HLA-A*02:11; assay: as above; details: source organism: Vibrio cholerae O139
[27] = target: HLA-A*29:02; assay: as above; details: source organism: Vibrio cholerae O139
[28] = target: HLA-A*02:03; assay: as above; details: source organism: Vibrio cholerae O139
[29] = target: HLA-B*18:01; assay: as above
[30] = target: HLA-A*23:01; assay: as above
[31] = target: HLA-B*08:01; assay: IEDB peptide-MHC binding, purified MHC/competitive/fluorescence; ≥ and ≤ were set here for values at or beyond the usual limits of such assays; details: source organism: Zaire ebolavirus
[32] = target: HLA-A*11:01; assay: as above; details: source organism: Zaire ebolavirus
[33] = target: HLA-A*02:01; assay: as above; details: source organism: Zaire ebolavirus
[34] = target: HLA-C*03:03; assay: IEDB peptide-MHC binding, purified MHC/direct/fluorescence; filed as Kd, often an IC50 or EC50 that approximates it; ≥ and ≤ were set here for values at or beyond the usual limits of such assays
[35] = target: HLA-A*24:02; assay: as above; details: source organism: Amur virus
[36] = target: HLA-C*15:02; assay: as above; details: source organism: Mycobacterium tuberculosis str. Haarlem
[37] = target: HLA-C*14:02; assay: as above; details: source organism: Mycobacterium tuberculosis str. Haarlem
[38] = target: HLA-B*39:01; assay: as above; details: source organism: Cryptosporidium parvum Iowa II
[39] = source organism: Vibrio cholerae
[40] = source organism: Vibrio cholerae O139
[41] = source organism: Giardia lamblia ATCC 50803
[42] = source organism: Yersinia pestis
[43] = source organism: Salmonella enterica subsp. enterica serovar Typhimurium
[44] = source organism: Escherichia coli O157:H7
[45] = source organism: Cryptosporidium parvum Iowa II

**Q.** DTDISQLHH was tested. Which Kd [1, 39] did it give?
**A.** 542 nM

**Q.** And the Kd [2, 39]?
**A.** ≥ 20 µM

**Q.** And the Kd [3, 39]?
**A.** ≥ 20 µM

**Q.** What about the Kd [4, 39] of the same sequence?
**A.** ≥ 20 µM

**Q.** What about the Kd [5, 39] of the same sequence?
**A.** ≥ 20 µM

**Q.** What about the Kd [6, 39] of the same sequence?
**A.** ≥ 20 µM

**Q.** And the Kd [7, 39]?
**A.** ≥ 20 µM

**Q.** What about the Kd [8, 39] of the same sequence?
**A.** 0.358 µM

**Q.** And the Kd [9, 39]?
**A.** ≥ 20 µM

**Q.** And the Kd [10, 39]?
**A.** ≥ 20 µM

**Q.** And the Kd [11, 39]?
**A.** ≥ 20000 nM

**Q.** What about the Kd [12, 39] of the same sequence?
**A.** ≥ 20 µM

**Q.** What about the Kd [13, 39] of the same sequence?
**A.** ≥ 20 µM

**Q.** And the Kd [14, 39]?
**A.** ≥ 20 µM

**Q.** And the Kd [15, 39]?
**A.** ≥ 20 µM

**Q.** And the Kd [16, 39]?
**A.** 2.68 µM

**Q.** How did the Kd [17, 40] turn out when EKDSNHNVL was run?
**A.** ≥ 20 µM

**Q.** What about the Kd [2, 40] of the same sequence?
**A.** ≥ 20 µM

**Q.** What about the Kd [18, 40] of the same sequence?
**A.** ≥ 20 µM

**Q.** And the Kd [4, 40]?
**A.** ≥ 20 µM

**Q.** And the Kd [5, 40]?
**A.** ≥ 20 µM

**Q.** And the Kd [19, 40]?
**A.** ≥ 20 µM

**Q.** What about the Kd [20] of the same sequence?
**A.** ≥ 20 µM

**Q.** What about the Kd [21] of the same sequence?
**A.** ≥ 20 µM

**Q.** And the Kd [22, 40]?
**A.** ≥ 20 µM

**Q.** What about the Kd [7, 40] of the same sequence?
**A.** ≥ 20 µM

**Q.** And the Kd [23, 40]?
**A.** ≥ 20 µM

**Q.** And the Kd [24, 40]?
**A.** ≥ 20 µM

**Q.** What about the Kd [25, 40] of the same sequence?
**A.** ≥ 20 µM

**Q.** And the Kd [26]?
**A.** ≥ 20 µM

**Q.** And the Kd [27]?
**A.** ≥ 20 µM

**Q.** What about the Kd [11, 40] of the same sequence?
**A.** ≥ 20000 nM

**Q.** And the Kd [28]?
**A.** ≥ 20 µM

**Q.** And the Kd [29, 40]?
**A.** ≥ 20 µM

**Q.** And the Kd [15, 40]?
**A.** ≥ 20 µM

**Q.** What about the Kd [30, 40] of the same sequence?
**A.** ≥ 20 µM

**Q.** With EVKKRDGVK as the sequence, how does the IC50 [31] read?
**A.** ≥ 211 µM

**Q.** What about the IC50 [32] of the same sequence?
**A.** 66.4 µM

**Q.** Which results are given for HILQKTERG?
**A.** IC50 [33]: ≥ 99.6 µM; IC50 [31]: ≥ 365 µM

**Q.** Which Kd ([34]; source organism: Mycobacterium tuberculosis str. Haarlem) does the source give for KLDSGAFTV here?
**A.** ≥ 20000 nM

**Q.** With MAVGVVLAL as the sequence, how does the Kd ([34]; source organism: Mycobacterium tuberculosis variant bovis BCG str. Pasteur 1173P2) read?
**A.** 24 nM

**Q.** How did the Kd [1, 41] turn out when PTKCGENLY was run?
**A.** 5200 nM

**Q.** What about the Kd [2, 41] of the same sequence?
**A.** ≥ 20 µM

**Q.** And the Kd [3, 41]?
**A.** ≥ 20 µM

**Q.** What about the Kd [4, 41] of the same sequence?
**A.** ≥ 20 µM

**Q.** And the Kd [5, 41]?
**A.** ≥ 20 µM

**Q.** What about the Kd [6, 41] of the same sequence?
**A.** ≥ 20 µM

**Q.** What about the Kd [7, 41] of the same sequence?
**A.** 12.9 µM

**Q.** What about the Kd [8, 41] of the same sequence?
**A.** 7.76 µM

**Q.** What about the Kd [9, 41] of the same sequence?
**A.** ≥ 20 µM

**Q.** And the Kd [10, 41]?
**A.** ≥ 20 µM

**Q.** What about the Kd [11, 41] of the same sequence?
**A.** 2360 nM

**Q.** And the Kd [12, 41]?
**A.** ≥ 20 µM

**Q.** What about the Kd [13, 41] of the same sequence?
**A.** ≥ 20 µM

**Q.** And the Kd [14, 41]?
**A.** ≥ 20 µM

**Q.** And the Kd [15, 41]?
**A.** ≥ 20 µM

**Q.** And the Kd [16, 41]?
**A.** ≥ 20 µM

**Q.** With QYEKDPDEL as the sequence, how does the Kd ([4]; source organism: Amur virus) read?
**A.** 13 µM

**Q.** And the Kd [35]?
**A.** 4.65 µM

**Q.** And the Kd ([30]; source organism: Amur virus)?
**A.** 11.5 µM

**Q.** Which results are given for RYVGLYLPF?
**A.** Kd ([4]; source organism: Mycobacterium tuberculosis): 0.0002 µM; Kd [36]: ≥ 20 µM; Kd [37]: ≤ 1 nM

**Q.** With TMPELAWAV as the sequence, how does the Kd [1, 42] read?
**A.** 420 nM

**Q.** What about the Kd [2, 42] of the same sequence?
**A.** ≥ 20 µM

**Q.** What about the Kd [3, 42] of the same sequence?
**A.** ≥ 20 µM

**Q.** And the Kd [5, 42]?
**A.** 0.0158 µM

**Q.** What about the Kd [6, 42] of the same sequence?
**A.** ≥ 20 µM

**Q.** And the Kd [7, 42]?
**A.** 0.0078 µM

**Q.** And the Kd [8, 42]?
**A.** ≥ 20 µM

**Q.** What about the Kd [9, 42] of the same sequence?
**A.** ≥ 20 µM

**Q.** And the Kd [10, 42]?
**A.** ≥ 20 µM

**Q.** And the Kd [11, 42]?
**A.** ≥ 20000 nM

**Q.** And the Kd [12, 42]?
**A.** 15 µM

**Q.** What about the Kd [13, 42] of the same sequence?
**A.** ≥ 20 µM

**Q.** And the Kd [14, 42]?
**A.** ≥ 20 µM

**Q.** And the Kd [15, 42]?
**A.** ≥ 20 µM

**Q.** And the Kd [16, 42]?
**A.** ≥ 20 µM

**Q.** VVPLYDTPL was tested. Which Kd [1, 43] did it give?
**A.** 315 nM

**Q.** What about the Kd [2, 44] of the same sequence?
**A.** ≥ 20 µM

**Q.** And the Kd [3, 43]?
**A.** 8.95 µM

**Q.** And the Kd [4, 44]?
**A.** ≥ 20 µM

**Q.** And the Kd [5, 44]?
**A.** ≥ 20 µM

**Q.** What about the Kd [6, 44] of the same sequence?
**A.** ≥ 20 µM

**Q.** And the Kd [8, 44]?
**A.** ≥ 20 µM

**Q.** And the Kd [9, 44]?
**A.** ≥ 20 µM

**Q.** What about the Kd [10, 44] of the same sequence?
**A.** ≥ 20 µM

**Q.** What about the Kd [11, 43] of the same sequence?
**A.** 1000 nM

**Q.** What about the Kd [12, 44] of the same sequence?
**A.** ≥ 20 µM

**Q.** What about the Kd [13, 44] of the same sequence?
**A.** ≥ 20 µM

**Q.** And the Kd [14, 44]?
**A.** ≥ 20 µM

**Q.** What about the Kd [15, 44] of the same sequence?
**A.** ≥ 20 µM

**Q.** What about the Kd [16, 44] of the same sequence?
**A.** ≥ 20 µM

**Q.** For YFRNSGMTY, which Kd [1, 39] is on record?
**A.** 110 nM

**Q.** What about the Kd [2, 39] of the same sequence?
**A.** ≥ 20 µM

**Q.** And the Kd [3, 39]?
**A.** ≥ 20 µM

**Q.** What about the Kd [5, 39] of the same sequence?
**A.** ≥ 20 µM

**Q.** And the Kd [6, 39]?
**A.** ≥ 20 µM

**Q.** And the Kd [7, 39]?
**A.** ≥ 20 µM

**Q.** And the Kd [8, 39]?
**A.** 1.46 µM

**Q.** What about the Kd [9, 39] of the same sequence?
**A.** ≥ 20 µM

**Q.** And the Kd [10, 39]?
**A.** ≥ 20 µM

**Q.** And the Kd [11, 39]?
**A.** 85.3 nM

**Q.** And the Kd [12, 39]?
**A.** ≥ 20 µM

**Q.** What about the Kd [13, 39] of the same sequence?
**A.** ≥ 20 µM

**Q.** What about the Kd [14, 39] of the same sequence?
**A.** ≥ 20 µM

**Q.** And the Kd [15, 39]?
**A.** ≥ 20 µM

**Q.** And the Kd [16, 39]?
**A.** ≥ 20 µM

**Q.** With YHMMKDEPV as the sequence, how does the IC50 [33] read?
**A.** 42.3 µM

**Q.** What about the IC50 [31] of the same sequence?
**A.** ≥ 178 µM

**Q.** With YLAKLFLDH as the sequence, how does the Kd [17, 45] read?
**A.** ≥ 20 µM

**Q.** What about the Kd [2, 45] of the same sequence?
**A.** ≥ 20 µM

**Q.** What about the Kd [18, 45] of the same sequence?
**A.** ≥ 20 µM

**Q.** And the Kd [19, 45]?
**A.** ≥ 20 µM

**Q.** And the Kd [22, 45]?
**A.** ≥ 20 µM

**Q.** And the Kd [7, 45]?
**A.** ≥ 20 µM

**Q.** What about the Kd [23, 45] of the same sequence?
**A.** ≥ 20 µM

**Q.** What about the Kd [24, 45] of the same sequence?
**A.** ≥ 20 µM

**Q.** What about the Kd [25, 45] of the same sequence?
**A.** ≥ 20 µM

**Q.** What about the Kd [29, 45] of the same sequence?
**A.** ≥ 20 µM

**Q.** And the Kd [38]?
**A.** ≥ 20 µM
